Results on 3 substances are retold here after paper PMC11784651.

Assay [1] addresses Biotinylated human CD38-Avi-His (Acrobiosystems, catalog NO: CD8-H82E7) (human). Kind of assay: SPR. (SPR reads the build-up and loss of mass on a sensor chip optically.)
Assay [2] concerns the target CD38 (soluble, in the SEC-MALS and electron microscopy of the ISB 1442/CD38 complex) (human). Kind of assay: SEC-MALS. Background: SEC sorts molecules by how far they enter the pores of the column.
Assay [3] deals with ISB 1442, CD47 x CD38 bispecific biparatopic antibody (2 + 1 BEAT format) (human). Kind of assay: flow cytometry on cells. For orientation: Flow cytometry measures light scatter and fluorescence of single cells or particles in a stream.
Assay [4] concerns the target Biotinylated human CD38-Avi-His (human). Kind of assay: SPR.

pKd: −log10 of the molar value.

The substance “ISB 1442, CD47 x CD38 bispecific biparatopic antibody (2 + 1 BEAT format) (bispecific antibody)” had a fold slower dissociation at 300 RU than at 10 RU CD38 surface density in assay [1] of 5.8 fold. This substance registered a stoichiometry N (ISB 1442 per CD38 (2:2 complex)) in assay [2] of 1. As for “soluble CD38 (sCD38) (domain or fragment)”, the molar ratio CD38/antibody at IC50 (mol CD38 per mol antibody) in assay [3] is 2.32. What is called pKd is the Kd on a negative log10 scale, so that one unit is a factor of ten. On to ISB 1442 (bispecific antibody), for which, in assay [4], the pKd is > 11.00.
